Measurements reported in the supplement of paper PMC10724198.
± gives the standard deviation of the averaged measurements.

tested on: Saccharomyces cerevisiae; experiment: protein stability index of tFT-peptide fusion (C-terminal peptide) (PSI (0-1 scale)); higher = more stable (slower turnover); conditions: genetic background: wild type; temperature: 30 C
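Also: PSI is a weighted mean of sequencing reads over stability bins, variants kept only with over 10 reads, mCherry proximal and sfGFP distal, peptide attached via GGGS linker.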

RDAWLGMSQYTF and RDCVVSCSCIHI are within error of each other in protein stability index: 0.7302 ± 0.0051 for the first, 0.694 ± 0.057 for the second.

RDGKRHSSQWRG and RDGLWCFSEFLG are within error of each other in protein stability index: 0.659 ± 0.037 for the first, 0.731 ± 0.048 for the second.

RDGRAGGDIGAT and RDNNSNEMGQAI are within error of each other in protein stability index: 0.618 ± 0.11 for the first, 0.723 ± 0.016 for the second.

RDPIGRPEMSKI and RDPTPPNPPPSR are within error of each other in protein stability index: 0.67 ± 0.086 for the first, 0.763 ± 0.057 for the second.

RDTFLKMLDERN and RDVVRGVSRGGR are within error of each other in protein stability index: 0.732 ± 0.042 for the first, 0.714 ± 0.02 for the second.

REAPPYQSHVAS and REDAKLGYGKKK are within error of each other in protein stability index: 0.676 ± 0.065 for the first, 0.637 ± 0.061 for the second.

REGGVLGVVKWS and REGPSPLDPSRF are within error of each other in protein stability index: 0.668 ± 0.02 for the first, 0.684 ± 0.051 for the second.

RELKSPRCRTHR and RELLWFIFTGFC are within error of each other in protein stability index: 0.653 ± 0.12 for the first, 0.622 ± 0.042 for the second.

REREKITRKRNT and RERGVSVKLGGG are within error of each other in protein stability index: 0.69 ± 0.01 for the first, 0.677 ± 0.026 for the second.

RESPYSRSRCLL and RETMFTRFRGSD are within error of each other in protein stability index: 0.733 ± 0.17 for the first, 0.627 ± 0.063 for the second.

RFAFLPPPPLPP and RFCQSHTSVSSF are within error of each other in protein stability index: 0.636 ± 0.011 for the first, 0.652 ± 0.039 for the second.

RFGGGAVWGLGG and RFGPPPPPPSTL are within error of each other in protein stability index: 0.666 ± 0.02 for the first, 0.71 ± 0.035 for the second.

First: RFGRGAVGGLGG
Second: RFGSGYLRRYTH
The protein stability index of the first is lower: 0.668 ± 0.02 for the first, 0.776 ± 0.011 for the second.

First: RFIGVVTRLRRC
Second: RFKLEKIKHKKK
The protein stability index of the first is lower: 0.643 ± 0.042 for the first, 0.755 ± 0.054 for the second.

Going from RFPRSSPPHRSL to RFRSMTGVIVSE, the protein stability index falls from 0.717 ± 0.023 to 0.6772 ± 0.002.

RFSPRSLIFFPS and RFTPLSFCTDRV are within error of each other in protein stability index: 0.612 ± 0.03 for the first, 0.658 ± 0.025 for the second.

RGARTGGGRDGS and RGEGGRALGVGR are within error of each other in protein stability index: 0.705 ± 0.025 for the first, 0.688 ± 0.015 for the second.

RGEGGRGRTVEG and RGEVQPRRDPGA are within error of each other in protein stability index: 0.631 ± 0.077 for the first, 0.662 ± 0.0095 for the second.

RGFGSGTVGVQS and RGFMLGFVSRFS are within error of each other in protein stability index: 0.616 ± 0.034 for the first, 0.625 ± 0.039 for the second.

RGFPPPPLLSSR and RGGGEWGKEDSQ are within error of each other in protein stability index: 0.74 ± 0.059 for the first, 0.705 ± 0.019 for the second.

Going from RGGGGRGWGSRG to RGGGGVLEVLLG, the protein stability index falls from 0.67 ± 0.027 to 0.5347 ± 0.0046.

RGGGQVLGVRVG and RGGGSWWCGGDQ are within error of each other in protein stability index: 0.667 ± 0.089 for the first, 0.76 ± 0.024 for the second.

RGGGVGRGLGGK and RGGLRRGSGREG are within error of each other in protein stability index: 0.605 ± 0.066 for the first, 0.684 ± 0.068 for the second.

RGGPLSSGVVLV and RGGRGAVRWLRG are within error of each other in protein stability index: 0.714 ± 0.049 for the first, 0.66791 ± 7.1e-07 for the second.

Going from RGGVAGQPDAGR to RGKIKKTRKDNK, the protein stability index falls from 0.666 ± 0.014 to 0.598 ± 0.021.

RGKTGLTRYIGV and RGLGGGAECGRW are within error of each other in protein stability index: 0.709 ± 0.074 for the first, 0.785 ± 0.12 for the second.

RGLGVFGVVSPA and RGLRIFMSRAWH are within error of each other in protein stability index: 0.7 ± 0.057 for the first, 0.75 ± 0.043 for the second.

Going from RGLVLWVVSGRG to RGLVSPPPPLPS, the protein stability index rises from 0.6155 ± 0.0045 to 0.681 ± 0.024.

First: RGLYPLKVDCQW
Second: RGPRGGFHFFRA
The protein stability index of the first is higher: 0.753 ± 0.036 for the first, 0.6657 ± 0.003 for the second.

RGREGSSVAVMV and RGRFGYTSSTLA are within error of each other in protein stability index: 0.646 ± 0.04 for the first, 0.686 ± 0.041 for the second.

RGRGRVFVFGNW and RGRLRFGNTTGI are within error of each other in protein stability index: 0.726 ± 0.033 for the first, 0.691 ± 0.035 for the second.

Going from RGRRPRPGGTGT to RGRRRGGQQIAE, the protein stability index rises from 0.641 ± 0.016 to 0.666 ± 0.007.

RGRSGASSGWRG and RGSQLFWSRGYL are within error of each other in protein stability index: 0.659 ± 0.044 for the first, 0.707 ± 0.035 for the second.

RGSSPRAVTVWM and RGTDSRERIKRR are within error of each other in protein stability index: 0.804 ± 0.075 for the first, 0.721 ± 0.06 for the second.

RGTWSLFYAFLD and RGVGAGGLEGIG are within error of each other in protein stability index: 0.578 ± 0.035 for the first, 0.535 ± 0.011 for the second.

Going from RGVGCLIITHSL to RGVGGVLEVLLG, the protein stability index falls from 0.608 ± 0.073 to 0.5256 ± 0.0032.

RGVGWGGLEGIG and RGVGWVLEVLLG are within error of each other in protein stability index: 0.5235 ± 0.0014 for the first, 0.518 ± 0.0087 for the second.

First: RGVPPPCPLLAA
Second: RGWAGGRQGCGG
The protein stability index of the first is lower: 0.599 ± 0.077 for the first, 0.746 ± 0.055 for the second.

RGWVEWGVRASE and RGYEGSEVQVGV are within error of each other in protein stability index: 0.749 ± 0.06 for the first, 0.677 ± 0.043 for the second.

RGYGRGWRGVGA and RGYLAKELGVKS are within error of each other in protein stability index: 0.747 ± 0.18 for the first, 0.652 ± 0.02 for the second.

RHAFGSSHVRFF and RHLVSPSTRAIS are within error of each other in protein stability index: 0.679 ± 0.024 for the first, 0.77 ± 0.15 for the second.

RHMLSDFIDACS and RHPPPRSSPPDL are within error of each other in protein stability index: 0.72 ± 0.12 for the first, 0.639 ± 0.095 for the second.

RHPVFSSTVSYI and RHSREPRASMTR are within error of each other in protein stability index: 0.738 ± 0.03 for the first, 0.641 ± 0.072 for the second.

RHTFMCQRRVGL and RHVSHASRLTPG are within error of each other in protein stability index: 0.78 ± 0.084 for the first, 0.602 ± 0.11 for the second.

RHYGVTSLISLQ and RIAPSLPPSSFL are within error of each other in protein stability index: 0.674 ± 0.01 for the first, 0.688 ± 0.0095 for the second.

RIATRCEGPGHK and RIDLFCVRSSLV are within error of each other in protein stability index: 0.663 ± 0.015 for the first, 0.6573 ± 0.0054 for the second.

RIGEHGWLTGYI and RILVYRKENRKN are within error of each other in protein stability index: 0.736 ± 0.012 for the first, 0.678 ± 0.052 for the second.

RINKKRETNQGK and RIQMSGHTNLVG are within error of each other in protein stability index: 0.685 ± 0.05 for the first, 0.686 ± 0.024 for the second.

Compared with RISPRVSARLCI, RITYIANNVMLF is higher in protein stability index: 0.616 ± 0.007 for the first, 0.652 ± 0.028 for the second.

RIYDNKNTGIYH and RKCMSNSKNNNE are within error of each other in protein stability index: 0.707 ± 0.022 for the first, 0.669 ± 0.018 for the second.

RKEAVTQTQKNT was tested, and the protein stability index was 0.672 ± 0.051.
